Results taken from publication PMC11667166, “O-glycosylation is essential for cell surface expression of the transcobalamin receptor CD320” (The Journal of Biological Chemistry, 2024).

Biological target: the molecule itself
Assay: co-IP; CD320-FLAG and CD320-V5 co-expressed in HEK293 cells; immunoprecipitation with anti-FLAG or anti-V5 antibody, western blotting with anti-FLAG or anti-V5 under non-reducing conditions (~350-kDa band)

B1: human CD320 (transcobalamin receptor), wild type, with an N-terminal FLAG or V5 tag (receptor, UniProt Q9NPF0-1 36-282, looked up)
chain: SPLSTPTSAQAAGPSSGSCPPTKFQCRTSGLCVPLTWRCDRDLDCSDGSDEEECRIEPCTQKGQCPPPPGLPCPCTGVSDCSGGTDKKLRNCSRLACLAGELRCTLSDDCIPLTWRCDGHPDCPDSSDELGCGTNEILPEGDATTMGPPVTLESVTSLRNATTMGPPVTLESVPSVGNATSSSAGDQSGSPTAYGVIAAAAVLSASLVTATLLLLSWLRAQERLRPLGLLVAMKESLLLSEQKTSLP
modifications: N-glycans at N126, N195 and N213; terminally sialylated O-glycans (the ~70-kDa proteoform)
notes: CD320 (transcobalamin receptor), human, NCBI NP_057663.1; wild type; type I transmembrane protein with signal peptide, two LDLR repeats, EGF-like module, transmembrane domain and cytoplasmic segment; Two differently tagged copies of the same protein (one with N-terminal FLAG, one with N-terminal V5) were co-expressed; each chain carries only one of the two tags; The ~350-kDa complex is seen only …
stoichiometry N: ~5
